Test results reported in patent publication US20150197562A1 (FRAUNHOFER GESELLSCHAFT ZUR FOERDERUNG DER ANGEWANDTEN …, published 2015).
Where two headings read alike, the source gives them in different places.

T1: dsRed
T1 construct: also called dsRed (horizontal lines)
T1 chain: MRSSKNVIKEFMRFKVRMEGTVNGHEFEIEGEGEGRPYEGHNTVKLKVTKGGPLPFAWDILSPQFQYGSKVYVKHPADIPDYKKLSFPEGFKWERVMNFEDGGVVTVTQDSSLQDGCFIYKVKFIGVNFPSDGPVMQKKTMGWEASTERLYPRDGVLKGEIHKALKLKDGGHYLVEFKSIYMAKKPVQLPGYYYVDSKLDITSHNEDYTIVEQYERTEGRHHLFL


Experiments:
dsRed [1] = molecular target: T1, dsRed; assay: ELISA, coated antigen, goat anti-human IgG-AP, pNPP, absorbance at 405 nm
dsRed [2] = molecular target: T1, dsRed; assay: as above

Binder	binding result (dsRed [1])	binding result (dsRed [2])
recombinant huMAb-anti-MSP10.2 (antibody, V domains shown, Same heavy chain as huMAb-anti-MSP10.1 with a different kappa light chain; Cloned and expressed like huMAb-anti-MSP10.1 (IgG1m17,1, kappa; N. benthamiana)) VH: EVQLVESGGDLVKPGGSLRLSCVVSGFRISTSAMSWVRQVPGKGLEWVSDISESGGSKDYADSVRGRFTISRDTSKNTLYLQMNSLGADDTALYYCAKSVGYFDTSGYYRWDYFDSWGQGTLVTVSS VL: EIVLTQSPDTLSLSPGETATLSCRASQTVRRNSLAWYQQKPGQAPRLLIYGASDRATGIPDRFSGSGFGTDFTLTVSGLEPEDFAVYYCQQYGTSPRTFGQGTKLEIK	no binding (tested: 100 µg/ml)	
recombinant huMAb-anti-MSP10.1 (antibody, V domains shown, also called recombinant human anti MSP-10 antibody huMAb-anti-MSP10.1) VH: EVQLVESGGDLVKPGGSLRLSCVVSGFRISTSAMSWVRQVPGKGLEWVSDISESGGSKDYADSVRGRFTISRDTSKNTLYLQMNSLGADDTALYYCAKSVGYFDTSGYYRWDYFDSWGQGTLVTVSS VL: EIVLTQSPDILSLSPGERATLSCRASQALTAKYLAWYQQKPGQVPRLLIYGSSTRATGIPDRFRGSGSGTDFTLTISRLEPADSAVYYCQQYEDSPWTFGQGTKLEIK		no binding (tested: 100 µg/ml)
